Measured values reported in US11667688B2, “Glucagon derivative and a composition comprising a long acting conjugate of the same” (HANMI PHARM. CO., LTD., priority 2015, dated 2023).
Bridge positions count the residues as written; N and C are the ends. Square brackets hold non-standard residues; d marks the D form. Ends that are not written are not given here. Aib = CC(C)(N)C(=O)O

target: T1, human glucagon receptors (Homo sapiens, UniProt P47871); test: cAMP activity of glucagon derivatives in CHO cell line transfected with human glucagon receptor (LANCE cAMP kit); format: cell-based; details: cAMP EC50 compared with that of native glucagon; CHO cells with human glucagon receptor
T1 construct: a region corresponding to Open Reading Frame (ORF) in the cDNA; expressed in transfected cells
T1 sequence (P47871 26-477): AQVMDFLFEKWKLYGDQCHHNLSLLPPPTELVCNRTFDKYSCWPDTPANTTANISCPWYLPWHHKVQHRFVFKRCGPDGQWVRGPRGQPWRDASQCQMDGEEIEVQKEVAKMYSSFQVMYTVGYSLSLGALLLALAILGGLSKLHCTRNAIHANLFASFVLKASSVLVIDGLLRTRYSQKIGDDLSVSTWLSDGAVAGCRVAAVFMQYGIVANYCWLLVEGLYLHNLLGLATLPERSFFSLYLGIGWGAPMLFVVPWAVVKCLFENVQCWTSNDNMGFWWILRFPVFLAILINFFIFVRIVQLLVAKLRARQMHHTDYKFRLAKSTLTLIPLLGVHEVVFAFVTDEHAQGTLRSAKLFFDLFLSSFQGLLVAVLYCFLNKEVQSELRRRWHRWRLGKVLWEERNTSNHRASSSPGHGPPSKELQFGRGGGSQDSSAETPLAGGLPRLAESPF
Method: PCR was performed using a region corresponding to Open Reading Frame (ORF) in the cDNA (OriGene Technologies, Inc., USA) of human glucagon receptor gene as a template along with the following forward and reverse primers (SEQ ID NOS: 47 and 48, respectively), which include each of the EcoRI and XhoI restriction sites.
The PCR product was cloned into a known animal cell expression vector, x0GC/dhfr, to prepare a recombinant vector x0GC/GCGR.
CHO DG44 cell line cultured in DMEM/F12 (10% FBS) medium was transfected with the recombinant vector x0GC/GCGR using LIPOFECTAMINE®, and cultured in a selection medium containing G418 (1 mg/mL) and methotraxate (10 nM).
Specifically, the transfected cell line was subcultured 3 to 4 times a week, aliquoted into a 384-well plate in an amount of 6×10^3 cell lines/well, and cultured for 24 hours. Native glucagon and glucagon derivatives were suspended in Hank's balanced salt solution (HBSS) buffer containing 0.5 mM of 3-isobutyl-1-methylxanthine (IBMX), 0.1% bovine serum albumin (BSA), and 5 mM 4-(2-hydroxyethyl)-1-piperazineethanesulfonic acid (HEPES) with the culture cells, at concentrations of 200 nM and 1600 nM, respectively, continuously subjected into a 4-fold dilution 10 times, applied to a cAMP assay kit (LANCE cAMP 384 kit, PerkinElmer), and added to the cultured cells, and their fluorescence value was measured.

Row | Substance | In vitro Activity (Relative Activity of SEQ ID NO: 1, %)
1 | YXQGTFTSDYSKYLDSRRAQDFVQWLMNT (Aib at position 2; glucagon derivative; (2) Xaa is aminoisobutyric acid (Aib)) [SEQ ID NO: 33, glucagon derivative, X = Aib] | 108.2%
2 | WXQGTFTSDYSKYCDERRAKEFVQWLMNT (W[Aib]QGTFTSDYSKYCDERRAKEFVQWLMNT; bridge 16-20) [SEQ ID NO: 34, glucagon derivative, X = Aib] | 0.2%
3 | -SQGTFTSDYSKYLDECRAKEFVQWLMNT (bridge 15-19; also: name begins with '-': N-terminal residue before chain not given here) [SEQ ID NO: 32, glucagon derivative, no residue at position 1] | 0.7%
4 | YXQGTFTSDYSKYLDECRAKEFVQWLMNT (Y[Aib]QGTFTSDYSKYLDECRAKEFVQWLMNT; bridge 16-20) [SEQ ID NO: 20, glucagon derivative, X = Aib] | 299.7%
5 | HSQGTFTSDYSKYLDSCEAQDFVQWLMNT (glucagon derivative) [SEQ ID NO: 5] | 0.3%
6 | YXQGTFTSDYSCYLDSRRAQDFVQWLMNT (Y[Aib]QGTFTSDYSCYLDSRRAQDFVQWLMNT) [SEQ ID NO: 13, glucagon derivative, X = Aib] | 5.2%
7 | YXQGTFTSDYSKYCDERRAKEFVQWLMNT (Y[Aib]QGTFTSDYSKYCDERRAKEFVQWLMNT; bridge 16-20) [SEQ ID NO: 35, glucagon derivative, X = Aib] | 17.7%
8 | YXQGTFVSDYSKYLDERRAKDFVQWLMNTC (Y[Aib]QGTFVSDYSKYLDERRAKDFVQWLMNTC; bridge 16-20) [SEQ ID NO: 40, glucagon derivative, X = Aib] | 40.8%
9 | YXQGTFTSDYSKYLCEKRAKEFVQWLMNT (Y[Aib]QGTFTSDYSKYLCEKRAKEFVQWLMNT; bridge 16-20) [SEQ ID NO: 19, glucagon derivative, X = Aib] | 12.1%
10 | YXQGTFTSDYSKYLDERRAKEFVQWLMNTC (Y[Aib]QGTFTSDYSKYLDERRAKEFVQWLMNTC; bridge 16-20) [SEQ ID NO: 37, glucagon derivative, X = Aib] | 225.5%
11 | YXQGTFTSDYSKYLDSRRAQDFVQWLMNTC (Aib at position 2; glucagon derivative; (2) Xaa is aminoisobutyric acid (Aib)) [SEQ ID NO: 44, glucagon derivative, X = Aib] | 75.4%
12 | YXQGTFTSDYSKYLDSCDADDFVVWLINT (Y[Aib]QGTFTSDYSKYLDSCDADDFVVWLINT) [SEQ ID NO: 10, glucagon derivative, X = Aib] | <0.1%
13 | WXQGTFTSDYSKYLDECRAKDFVQWLMNT (W[Aib]QGTFTSDYSKYLDECRAKDFVQWLMNT; bridge 16-20) [SEQ ID NO: 26, glucagon derivative, X = Aib] | 1.0%
14 | YXQGTFTSDCSKYLDERRAKEFVQWLMNT (Y[Aib]QGTFTSDCSKYLDERRAKEFVQWLMNT; bridge 16-20) [SEQ ID NO: 36, glucagon derivative, X = Aib] | 9.9%
15 | YXQGTFTSDYSKYLDCKRAKEFVQWLMNT [SEQ ID NO: 14] (Y[Aib]QGTFTSDYSKYLDCKRAKEFVQWLMNT; not fully specified) [glucagon derivative, X = Aib] | 18.1%
16 | YXQGTFTSDYSKYLDEKCAKEFVQWLMNT [SEQ ID NO: 21] (Y[Aib]QGTFTSDYSKYLDEKCAKEFVQWLMNT; bridge 16-20) [glucagon derivative, X = Aib] | 57.8%
17 | HSQGTFTSDYSKYLDCDRAQDFVQWLMNT (glucagon derivative) [SEQ ID NO: 2] | 0.6%
18 | YXQGTFVSDCSKYLDERRAKDFVQWLMNT (Y[Aib]QGTFVSDCSKYLDERRAKDFVQWLMNT; bridge 16-20) [SEQ ID NO: 39, glucagon derivative, X = Aib] | 3.7%

Further lines, results first:

Row | In vitro Activity (Relative Activity of SEQ ID NO: 1, %) | Substance
19 | 23.2% | YXQGTFTSDYSKYLDCVRAQDFVQWLMRT (Y[Aib]QGTFTSDYSKYLDCVRAQDFVQWLMRT) [SEQ ID NO: 17, glucagon derivative, X = Aib]
20 | <0.1% | YXQGTFTSDYSKYLDSCDAQDFVVWLINT (Y[Aib]QGTFTSDYSKYLDSCDAQDFVVWLINT) [SEQ ID NO: 9, glucagon derivative, X = Aib]
21 | 56.3% | YXQGTFTSDYSKYLDEKRAKEFVQWLMNTC (Y[Aib]QGTFTSDYSKYLDEKRAKEFVQWLMNTC; bridge 16-20) [SEQ ID NO: 12, glucagon derivative, X = Aib]
22 | <0.1% | YXQGTFTSDYSKYLDSRRACDFRLWLMNT (Y[Aib]QGTFTSDYSKYLDSRRACDFRLWLMNT) [SEQ ID NO: 18, glucagon derivative, X = Aib]
23 | <0.1% | YXQGTFTSDYSKYLDSCDAQDFVQWLINT (Y[Aib]QGTFTSDYSKYLDSCDAQDFVQWLINT) [SEQ ID NO: 8, glucagon derivative, X = Aib]
24 | 93.6% | YXQGTFVSDYSKYLDECRAKDFVQWLMNT (Y[Aib]QGTFVSDYSKYLDECRAKDFVQWLMNT; bridge 16-20) [SEQ ID NO: 27, glucagon derivative, X = Aib]
25 | 46.9% | YXQGTFTSDYSKYLDEKRAKCFVQWLMNT (Y[Aib]QGTFTSDYSKYLDEKRAKCFVQWLMNT; bridge 16-20) [SEQ ID NO: 25, glucagon derivative, X = Aib]
26 | 0.3% | WXQGTFTSDYSKCLDERRAKDFVQWLMNT (W[Aib]QGTFTSDYSKCLDERRAKDFVQWLMNT; bridge 16-20) [SEQ ID NO: 30, glucagon derivative, X = Aib]
27 | 1.6% | YXQGTFTSDCSKYLDSRRAQDFVQWLMNT (Y[Aib]QGTFTSDCSKYLDSRRAQDFVQWLMNT) [SEQ ID NO: 43, glucagon derivative, X = Aib]
28 | 45.2% | YXQGTFCSDYSKYLDERRAKDFVQWLMNT (Y[Aib]QGTFCSDYSKYLDERRAKDFVQWLMNT; bridge 16-20) [SEQ ID NO: 41, glucagon derivative, X = Aib]
29 | 1.1% | YXQGTFTSDYSKYLCEKRAQDFVVWLMNT (Y[Aib]QGTFTSDYSKYLCEKRAQDFVVWLMNT) [SEQ ID NO: 15, glucagon derivative, X = Aib]
30 | 147.8% | YXQGTFTSDYSKYLDEKRCKEFVQWLMNT (Y[Aib]QGTFTSDYSKYLDEKRCKEFVQWLMNT; bridge 16-20) [SEQ ID NO: 22, glucagon derivative, X = Aib]
31 | 167.3% | YXQGTFCSDYSKYLDERRAKEFVQWLMNT (Y[Aib]QGTFCSDYSKYLDERRAKEFVQWLMNT; bridge 16-20) [SEQ ID NO: 38, glucagon derivative, X = Aib]
32 | <0.1% | YSQGTFTSDYSKYLDSCEADDFVQWLMNT (glucagon derivative) [SEQ ID NO: 7]
